Values of other authors in article PMC5580235.
Where two headings read alike, the source gives them in different places. Values belong to the substance of their own block, whether it stands above or below them.

Experiments:
[1] = biological target: ICAM-1 (Homo sapiens) (UniProt P05362)
[2] = biological target: ICAM-1 (Homo sapiens) (UniProt P05362); remark: listed apart in the source
[3] = biological target: ICAM-1 (Homo sapiens) (UniProt P05362); remark: listed apart in the source

ICAM-1 (Homo sapiens), sequence (P05362 28-480): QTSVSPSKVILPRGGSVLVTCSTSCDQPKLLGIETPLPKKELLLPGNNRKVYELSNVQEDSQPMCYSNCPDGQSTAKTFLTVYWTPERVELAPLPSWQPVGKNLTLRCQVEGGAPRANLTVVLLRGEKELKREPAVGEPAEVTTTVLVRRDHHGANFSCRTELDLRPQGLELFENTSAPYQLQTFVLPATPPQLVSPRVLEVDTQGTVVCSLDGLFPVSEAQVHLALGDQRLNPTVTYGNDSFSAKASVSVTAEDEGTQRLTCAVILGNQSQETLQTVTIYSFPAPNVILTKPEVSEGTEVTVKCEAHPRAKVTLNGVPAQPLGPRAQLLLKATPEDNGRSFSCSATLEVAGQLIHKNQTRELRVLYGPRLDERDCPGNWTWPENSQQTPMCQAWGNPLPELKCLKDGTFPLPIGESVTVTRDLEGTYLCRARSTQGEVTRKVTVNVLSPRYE
LFA-1 (low affinity form), sequence (P20701 26-1090): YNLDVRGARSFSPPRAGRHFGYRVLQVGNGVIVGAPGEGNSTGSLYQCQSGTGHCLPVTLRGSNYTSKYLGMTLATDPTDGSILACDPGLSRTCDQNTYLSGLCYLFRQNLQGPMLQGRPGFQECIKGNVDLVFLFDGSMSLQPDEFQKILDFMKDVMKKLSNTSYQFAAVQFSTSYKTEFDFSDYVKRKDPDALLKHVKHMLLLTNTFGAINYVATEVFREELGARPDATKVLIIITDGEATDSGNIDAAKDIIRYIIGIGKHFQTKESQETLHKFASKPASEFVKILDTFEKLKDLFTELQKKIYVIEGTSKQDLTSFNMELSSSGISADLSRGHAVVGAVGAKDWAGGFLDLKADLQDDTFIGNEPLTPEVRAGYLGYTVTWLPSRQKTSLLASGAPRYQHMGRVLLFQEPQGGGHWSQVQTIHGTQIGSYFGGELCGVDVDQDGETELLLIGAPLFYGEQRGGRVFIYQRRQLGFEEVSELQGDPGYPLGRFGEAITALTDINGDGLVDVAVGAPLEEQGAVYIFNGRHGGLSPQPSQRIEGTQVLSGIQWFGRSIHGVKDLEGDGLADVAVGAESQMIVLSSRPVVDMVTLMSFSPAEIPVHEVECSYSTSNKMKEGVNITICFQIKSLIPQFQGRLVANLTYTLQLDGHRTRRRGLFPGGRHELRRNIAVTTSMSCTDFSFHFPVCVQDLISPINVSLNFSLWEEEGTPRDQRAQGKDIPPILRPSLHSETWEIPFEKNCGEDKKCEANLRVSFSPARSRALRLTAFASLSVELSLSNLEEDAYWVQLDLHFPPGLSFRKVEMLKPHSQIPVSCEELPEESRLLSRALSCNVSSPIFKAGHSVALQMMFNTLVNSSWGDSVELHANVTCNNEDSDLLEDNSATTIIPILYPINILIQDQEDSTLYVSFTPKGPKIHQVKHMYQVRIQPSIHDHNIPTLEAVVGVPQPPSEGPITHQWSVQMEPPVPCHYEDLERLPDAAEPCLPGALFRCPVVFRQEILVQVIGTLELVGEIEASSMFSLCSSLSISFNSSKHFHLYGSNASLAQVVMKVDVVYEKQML
LFA-1 (low affinity form), sequence (P05107 23-700, further chain): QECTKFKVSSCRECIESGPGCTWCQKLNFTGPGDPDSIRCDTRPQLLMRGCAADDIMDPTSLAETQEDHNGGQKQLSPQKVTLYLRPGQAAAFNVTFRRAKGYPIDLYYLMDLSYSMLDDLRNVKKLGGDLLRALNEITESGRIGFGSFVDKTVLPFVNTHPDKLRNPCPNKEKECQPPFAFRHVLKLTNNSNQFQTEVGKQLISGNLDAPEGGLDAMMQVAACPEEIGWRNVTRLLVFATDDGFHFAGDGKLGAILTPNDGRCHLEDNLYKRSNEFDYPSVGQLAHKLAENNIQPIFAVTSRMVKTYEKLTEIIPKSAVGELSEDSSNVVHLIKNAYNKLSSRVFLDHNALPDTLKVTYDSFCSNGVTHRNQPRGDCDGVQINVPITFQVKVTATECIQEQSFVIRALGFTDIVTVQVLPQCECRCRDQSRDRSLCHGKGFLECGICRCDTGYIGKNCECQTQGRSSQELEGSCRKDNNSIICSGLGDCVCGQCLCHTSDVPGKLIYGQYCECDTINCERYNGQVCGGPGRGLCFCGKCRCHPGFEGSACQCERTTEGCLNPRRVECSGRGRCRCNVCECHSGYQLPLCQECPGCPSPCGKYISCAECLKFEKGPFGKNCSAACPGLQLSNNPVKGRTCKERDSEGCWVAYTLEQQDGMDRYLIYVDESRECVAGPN
LFA-1 (high affinity form), sequence (P20701 26-1090): as the sequence (P20701 26-1090) above
LFA-1 (high affinity form), sequence (P05107 23-700, further chain): as the sequence (P05107 23-700, further chain) above
LFA-1 (intermediate affinity form), sequence (P20701 26-1090): as the sequence (P20701 26-1090) above
LFA-1 (intermediate affinity form), sequence (P05107 23-700, further chain): as the sequence (P05107 23-700, further chain) above

- Kd [1]: 0.15 µM
Substance: LFA-1 (high affinity form) (from UniProt P20701)

- Kd [2]: 15 µM
Substance: LFA-1 (intermediate affinity form) (from UniProt P20701)

- Kd [3]: 1500 µM
Substance: LFA-1 (low affinity form) (from UniProt P20701)
